Test [1] has as its target LRRK2 Roc-COR-Kinase-WD40 (RCKW) domain construct (Homo sapiens, UniProt Q5S007, biotinylated (in the BLI experiment)). Nature of the test: BLI. Background: BLI is a label-free optical method that tracks binding on a fibre tip over time.
Test [2] addresses endogenous (mouse) LRRK2 (Mus musculus, UniProt Q5S006). Kind of test: pull-down.
For test [3], the target named is T1, full-length human LRRK2 (leucine-rich repeat kinase 2) (human, UniProt Q5S007). Nature of the test: enzyme kinetics.
T1 sequence (Q5S007 whole entry): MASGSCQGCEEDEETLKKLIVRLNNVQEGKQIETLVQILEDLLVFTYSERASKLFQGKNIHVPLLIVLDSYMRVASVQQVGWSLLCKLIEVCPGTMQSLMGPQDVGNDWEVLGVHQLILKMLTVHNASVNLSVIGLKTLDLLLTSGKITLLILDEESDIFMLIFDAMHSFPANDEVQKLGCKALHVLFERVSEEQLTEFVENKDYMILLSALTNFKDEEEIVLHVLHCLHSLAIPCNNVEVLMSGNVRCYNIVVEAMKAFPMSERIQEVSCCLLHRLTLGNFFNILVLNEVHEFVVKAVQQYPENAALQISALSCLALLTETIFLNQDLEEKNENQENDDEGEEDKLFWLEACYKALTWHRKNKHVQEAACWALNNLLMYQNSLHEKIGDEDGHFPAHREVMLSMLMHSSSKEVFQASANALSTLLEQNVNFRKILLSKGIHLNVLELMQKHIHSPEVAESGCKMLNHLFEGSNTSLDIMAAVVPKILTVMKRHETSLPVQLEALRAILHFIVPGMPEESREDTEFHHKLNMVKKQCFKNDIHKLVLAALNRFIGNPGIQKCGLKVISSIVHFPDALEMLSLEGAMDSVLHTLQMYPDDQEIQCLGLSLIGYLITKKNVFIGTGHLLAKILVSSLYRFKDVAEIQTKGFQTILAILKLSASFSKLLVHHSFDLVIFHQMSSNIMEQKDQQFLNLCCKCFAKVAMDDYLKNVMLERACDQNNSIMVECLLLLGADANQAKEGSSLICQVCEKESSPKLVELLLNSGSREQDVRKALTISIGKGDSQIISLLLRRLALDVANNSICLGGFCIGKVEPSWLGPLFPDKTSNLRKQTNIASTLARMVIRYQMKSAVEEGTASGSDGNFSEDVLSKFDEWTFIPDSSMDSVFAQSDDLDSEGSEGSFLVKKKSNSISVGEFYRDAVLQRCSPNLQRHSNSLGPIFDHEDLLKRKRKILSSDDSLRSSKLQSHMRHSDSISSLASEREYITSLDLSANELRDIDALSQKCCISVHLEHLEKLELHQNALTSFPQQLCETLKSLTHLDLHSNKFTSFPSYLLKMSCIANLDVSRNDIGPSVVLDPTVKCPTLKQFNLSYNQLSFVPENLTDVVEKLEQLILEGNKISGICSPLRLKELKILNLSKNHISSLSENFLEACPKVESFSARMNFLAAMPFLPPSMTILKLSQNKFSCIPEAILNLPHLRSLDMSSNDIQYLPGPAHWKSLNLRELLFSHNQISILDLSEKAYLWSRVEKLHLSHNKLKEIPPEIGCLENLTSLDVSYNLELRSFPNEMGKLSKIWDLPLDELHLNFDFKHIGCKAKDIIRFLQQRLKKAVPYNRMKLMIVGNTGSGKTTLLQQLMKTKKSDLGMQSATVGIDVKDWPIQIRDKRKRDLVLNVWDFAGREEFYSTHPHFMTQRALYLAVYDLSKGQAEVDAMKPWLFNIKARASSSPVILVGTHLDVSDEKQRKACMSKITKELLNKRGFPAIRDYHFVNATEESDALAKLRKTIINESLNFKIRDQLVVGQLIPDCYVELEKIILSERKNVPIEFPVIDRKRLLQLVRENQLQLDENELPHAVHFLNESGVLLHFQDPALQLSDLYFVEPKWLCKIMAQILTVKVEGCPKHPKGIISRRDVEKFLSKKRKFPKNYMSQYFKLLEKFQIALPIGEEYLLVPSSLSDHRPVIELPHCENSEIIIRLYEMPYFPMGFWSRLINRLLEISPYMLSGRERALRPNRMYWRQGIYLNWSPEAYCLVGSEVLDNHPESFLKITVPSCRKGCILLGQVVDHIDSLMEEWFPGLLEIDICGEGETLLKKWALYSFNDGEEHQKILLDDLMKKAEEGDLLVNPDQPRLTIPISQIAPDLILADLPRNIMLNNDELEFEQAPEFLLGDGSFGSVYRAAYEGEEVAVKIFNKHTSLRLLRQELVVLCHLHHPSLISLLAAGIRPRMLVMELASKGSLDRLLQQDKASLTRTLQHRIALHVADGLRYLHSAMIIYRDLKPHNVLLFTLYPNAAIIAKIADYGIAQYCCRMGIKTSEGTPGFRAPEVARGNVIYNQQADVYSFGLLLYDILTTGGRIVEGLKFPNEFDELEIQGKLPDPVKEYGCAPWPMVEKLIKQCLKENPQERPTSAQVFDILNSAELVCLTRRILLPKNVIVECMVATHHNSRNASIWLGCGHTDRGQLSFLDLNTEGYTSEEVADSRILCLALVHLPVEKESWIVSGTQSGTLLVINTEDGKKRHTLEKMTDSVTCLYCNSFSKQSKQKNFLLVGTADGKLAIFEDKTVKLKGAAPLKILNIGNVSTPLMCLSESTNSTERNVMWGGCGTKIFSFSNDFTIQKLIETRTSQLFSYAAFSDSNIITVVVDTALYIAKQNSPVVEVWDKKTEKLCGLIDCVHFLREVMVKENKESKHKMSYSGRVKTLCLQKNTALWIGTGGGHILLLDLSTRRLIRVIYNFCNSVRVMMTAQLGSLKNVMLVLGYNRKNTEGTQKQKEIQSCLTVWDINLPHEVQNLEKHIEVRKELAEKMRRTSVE
In test [4] the target is T1, full-length human LRRK2 (leucine-rich …). Kind of test: BLI.
The target is the same in test [5]. Kind of test: MST.
For test [6], the target named is LRRK2 kinase-WD40 (K-WD40) two-domain construct (Homo sapiens, UniProt Q5S007). Kind of test: ELISA. On the technique in general: ELISA stands for enzyme-linked immunosorbent assay.
LRRK2 kinase-WD40 (K-WD40) two-domain construct, sequence (Q5S007 whole entry, looked up, tested part not stated): as the sequence (Q5S007 whole entry) above
Test [7] addresses LRRK2 C-terminal subdomain of COR (COR-B) (Homo sapiens, UniProt Q5S007). Kind of test: ELISA.
The target of test [8] is LRRK2 Roc domain (Homo sapiens, UniProt Q5S007). Nature of the test: ELISA.
LRRK2 Roc domain, sequence (Q5S007 1328-1511): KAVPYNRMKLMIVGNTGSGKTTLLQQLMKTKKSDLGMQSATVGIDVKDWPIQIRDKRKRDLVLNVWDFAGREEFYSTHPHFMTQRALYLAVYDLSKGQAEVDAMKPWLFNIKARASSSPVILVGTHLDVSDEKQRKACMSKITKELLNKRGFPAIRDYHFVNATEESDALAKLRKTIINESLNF
The target of test [9] is LRRK2 RocCOR domain construct (Homo sapiens, UniProt Q5S007). Nature of the test: ELISA.
LRRK2 RocCOR domain construct, sequence (Q5S007 whole entry, looked up, the tested form may be a part): as the sequence (Q5S007 whole entry) above
Test [10] deals with LRRK2 N-terminal armadillo (ARM) domain construct (Homo sapiens, UniProt Q5S007). Nature of the test: ELISA.
LRRK2 N-terminal armadillo (ARM) domain construct, sequence (Q5S007 whole entry, looked up, tested part not stated): as the sequence (Q5S007 whole entry) above
Test [11] deals with T1, full-length human LRRK2 (leucine-rich …). Kind of test: ELISA.

The source of these data is article PMC8892280 (Proceedings of the National Academy of Sciences of the …, 2022).

LRRK2 Roc-COR-Kinase-WD40 (RCKW) domain construct, sequence (Q5S007 whole entry, looked up, tested part not stated): as the sequence (Q5S007 whole entry) above
LRRK2 C-terminal subdomain of COR (COR-B), sequence (Q5S007 whole entry, looked up, the tested form may be a part): as the sequence (Q5S007 whole entry) above

B1: Nb23 (VHH)
VHH: QVQLVESGGGLVQAGGSLRLSCAASGRTFSRYTMGWFRQAPGKDREFVARITTSGAVTTYADSAKGRFTISRDNAKNTVYLQMNTLKPEDTAVYYCAAGQGQLSSQSRFVDYWGQGTQVTVSS
In general, Kd refers to the constant that tells how readily two partners part at equilibrium. Higher therefore signals a looser complex. One may read the Ki as the equilibrium dissociation constant of an inhibitor or competing ligand from its target. On to B1, for which the dissociation constant Kd in [1] came to 17 ± 7 nM. The binding result in test [2] is on record as “binds”. Moreover, in test [3], the Ki is 9000 nM and the “Kiu^app (apparent Ki for ATP-bound LRRK2)” value turned out to be 72000 nM. For the same molecule, in [4], the Kd turned out to be 20 ± 5 nM.

B2: Nb42 (VHH)
VHH: QVQLVESGGGLVQAGGSLRLSCAASGDVNYAVGWFRQAPRKEREFVAAINWRGDNTDYTDSVKGRFTISRDNAKNTVYLQMNSLKPEDTAVYYCAAKSAPYWYSDIAPDYWGQGTQVTVSS
Consider B2, for which the Kd in test [1] was 18 ± 2 nM; in [4] it was 58 ± 18 nM. In addition, the binding result in test [2] is recorded as “binds”.

B3: m-TAMRA-labeled Nb36 (VHH)
VHH: QVQLVESGGGLVQPGGSLRLSCAASGSIRSITTSAWFRQPPGKQRELVAGISSGTSTNYADSVKGRFTISRDNAKNTVYLQMNSLKPEDTAVYYCHVWISGTWYSGQGTQVTVSS
With B3, binding in test [5] was put at a Kd of 78 ± 25 nM.

B4: Nb38 (VHH)
VHH: QVQLVESGGGLVQPGGSLRLSCAASGSIRSIATSAWYRQPPGKQRELVAGISSGTTTNYADSVKGRFTISRDNAKNTVYLQMNSLKPEDTAVYYCHAWISGTWISGQGTQVTVSS
Regarding B4, the binding result is reported as “no binding” in [1]; “no binding” in test [6]; “no binding” in [7]; “no binding” in [8]; “no binding” in test [9]; “binds” in test [2]. Also, the binding result in test [10] is on record as “no binding”. Further, the Kd in [4] was determined as 37 ± 4 nM.

B5: m-TAMRA-labeled Nb38 (VHH)
VHH: QVQLVESGGGLVQPGGSLRLSCAASGSIRSIATSAWYRQPPGKQRELVAGISSGTTTNYADSVKGRFTISRDNAKNTVYLQMNSLKPEDTAVYYCHAWISGTWISGQGTQVTVSS
Take B5: binding in [5] was put at a Kd of 48 ± 11 nM.

B6: Nb36 (VHH)
VHH: QVQLVESGGGLVQPGGSLRLSCAASGSIRSITTSAWFRQPPGKQRELVAGISSGTSTNYADSVKGRFTISRDNAKNTVYLQMNSLKPEDTAVYYCHVWISGTWYSGQGTQVTVSS
On to B6, for which the binding result was “no binding” in [1]; “no binding” in test [6]; “no binding” in test [7]; “no binding” in test [8]; “no binding” in test [9]; “binds” in test [2]. In addition, the binding result in [10] is “no binding”. For the same molecule, in test [4], the Kd turned out to be 16 ± 8 nM.

B7: m-TAMRA-labeled Nb1 (VHH)
VHH: QVQLVESGGGLVQAGGSLRLSCVASGRIFSGNAMGWYRQAPGRQRELVAGITNGGYTNYRQFVKGRFTISRDNAKRTVYLQMNSLKPEDTAVYYCNALDREARQVDYWGQGTQVTVSS
On to B7, for which the Kd in test [5] was found to be 91 ± 28 nM.

B8: Nb1 (VHH)
VHH: QVQLVESGGGLVQAGGSLRLSCVASGRIFSGNAMGWYRQAPGRQRELVAGITNGGYTNYRQFVKGRFTISRDNAKRTVYLQMNSLKPEDTAVYYCNALDREARQVDYWGQGTQVTVSS
As for B8, the affinity in [1], expressed as Kd, was 39 ± 4 nM. Further, the binding result in test [2] is recorded as “binds”. Moreover, in [3], the Ki was 16000 nM and the “Kiu^app (apparent Ki for ATP-bound LRRK2)” value was 30000 nM. In test [4], this molecule registered a Kd of 55 ± 12 nM.

B9: m-TAMRA-labeled Nb39 (VHH)
VHH: QVQLVESGGGLVQAGGSLRLSCRASGGTFSTYAMGWFRQVPGKERETVAAVKWSGDMTYYADSVKGRFTISRDNAKNTVYLQMNSLRPEDTAVYYCAARRGLSYYRGPSEYDYWGQGTQVTVSS
The molecule B9 gave a dissociation constant Kd in [5] of 79 ± 19 nM.

B10: Nb39 (VHH)
VHH: QVQLVESGGGLVQAGGSLRLSCRASGGTFSTYAMGWFRQVPGKERETVAAVKWSGDMTYYADSVKGRFTISRDNAKNTVYLQMNSLRPEDTAVYYCAARRGLSYYRGPSEYDYWGQGTQVTVSS
As to B10, the binding result in test [1] was “no binding”; in test [6], “no binding”; in test [7], “no binding”; in test [8] it was “no binding”; in test [9] it was “no binding”; in test [2], “binds”. Besides, binding in test [4] was characterised by a dissociation constant (Kd) of 12 ± 3 nM.

B11: m-TAMRA-labeled Nb6 (VHH)
VHH: QVQLVESGGGLVQAGGSLRLSCAASGSIFSPTAMGWYRQAPGKERELVAGITSGGYTNYRNFARGRFTISRDNAKKTVYLQMNSLNPEDTAVYYCNTLTISWSWGQGTQVTVSS
Consider B11, for which, in [5], the affinity, expressed as Kd, was 83 ± 24 nM.

B12: Nb6 (VHH)
VHH: QVQLVESGGGLVQAGGSLRLSCAASGSIFSPTAMGWYRQAPGKERELVAGITSGGYTNYRNFARGRFTISRDNAKKTVYLQMNSLNPEDTAVYYCNTLTISWSWGQGTQVTVSS
On to B12, for which the Kd in test [1] amounted to 5 ± 1 nM; in test [4] it was 8 ± 1 nM. Moreover, in test [2], the binding result is recorded as “binds”. This molecule displayed a Ki in [3] of 5000 nM. The “Kiu^app (apparent Ki for ATP-bound LRRK2)” value in test [3] is 8000 nM.

B13: m-TAMRA-labeled Nb40 (VHH)
VHH: QVQLVESGGGLVQPGGSLRLSCVASGTIYAINRMGWYRQAPGKQRELVALITLGGGTNYGDSVKGRFTISRDNAKNTGYLQMNSLKPEDTAVYYCKVESSGYTDVFWGQGTQVTVSS
Molecule B13 gave a Kd in [5] of 26 ± 10 nM.

B14: Nb40 (VHH)
VHH: QVQLVESGGGLVQPGGSLRLSCVASGTIYAINRMGWYRQAPGKQRELVALITLGGGTNYGDSVKGRFTISRDNAKNTGYLQMNSLKPEDTAVYYCKVESSGYTDVFWGQGTQVTVSS
For B14, the Kd in [1] is 2.6 ± 0.3 nM; in [4], 2.5 ± 0.3 nM. The binding result in [2] is recorded as “binds”.

B15: m-TAMRA-labeled Nb22 (VHH)
VHH: QVQLVESGGGLVQAGGSLRLSCAASGRTFSSYTMGWFRQAPGKEREFVAAIRWSGGSTYYADSVKGRFTISRDNAKNTVYLQMNSLKPEDTAVYYCAASDRGGFIATSGGWMDYWGKGTQVTVSS
In turn, B15 registered a Kd in test [5] of 145 ± 55 nM.

B16: Nb22 (VHH)
VHH: QVQLVESGGGLVQAGGSLRLSCAASGRTFSSYTMGWFRQAPGKEREFVAAIRWSGGSTYYADSVKGRFTISRDNAKNTVYLQMNSLKPEDTAVYYCAASDRGGFIATSGGWMDYWGKGTQVTVSS
With B16, the values for the Kd in test [1] and in test [4] were 5 ± 1 nM and 10 ± 1 nM, respectively. In addition, in test [2], the binding result is reported as “binds”.

B17: m-TAMRA-labeled Nb17 (VHH)
VHH: QVQLVESGGGLVQPGGSLRLSCAASGSNIGYMAWYRQAPGSQRELVARIASGGSANYADSVKGRFTISRDNVKNTVYLHMNSLKPVDTAVYYCHADAWYNSRWSDYWGQGTQVTVSS
In turn, B17 displayed a Kd in test [5] of 67 ± 24 nM.

B18: Nb17 (VHH)
VHH: QVQLVESGGGLVQPGGSLRLSCAASGSNIGYMAWYRQAPGSQRELVARIASGGSANYADSVKGRFTISRDNVKNTVYLHMNSLKPVDTAVYYCHADAWYNSRWSDYWGQGTQVTVSS
A word on the EC50: it is the concentration at which the effect is half-maximal. The low end stands for greater potency, the high end for weaker potency. In turn, B18 showed an EC50 in test [11] of around 3 nM. In test [11], the “EC50 in presence of Rab8a (20 µM)” value is around 5 nM. Further, the binding result in [1] was “no binding”; in [6], “no binding”; in test [7] it was “no binding”; in test [8], “no binding”; in test [9], “no binding”; in test [2], “binds”. Also, the binding result in test [10] is on record as “no binding”. For the same molecule, the Kd in test [4] was 2 ± 0.3 nM.
